This passage reports IC50 and IC50, inhibition of fMLFF-induced calcium release, cynomolgus FPR1 HEK cells results from paper PMC4622665.

In assay [1] the target is cynomolgus formyl peptide receptor 1 (cynomolgus monkey). The experiment in a line: FMAT competition binding on cells.
For assay [2] the target is unchanged.

B1: Fpro0165 IgG (antibody, V domains shown)
VH: EVQLVESGGGLVKPGGSLRLSCAASGFTFSNAWMNWVRQAPGKGLEWVGRVKSKTDGGAADYAAPVKGRFTISRDDSKNTLYLQMNSLKTEDTAVYYCTTDQLGYDFWNGYYTDTLYYYFGMDVWGPGTTVTVSS
VL: DIVMTQSPLSLPVTPGEPASISCRSSQPLLAMDGHNYLDWYLQKPGQSPQVLIYQSKWRASGVPDRFSGSGSGTDFTLKISRVEAEDVGVYYCMQALQTPLTFGGGTKVEIK
B1 came in with an IC50 in assay [1] of 20 nM. The IC50, inhibition of fMLFF-induced calcium release, cynomolgus FPR1 HEK cells in assay [2] was found to be 12 nM.

B2: Fpro0067 IgG (antibody, V domains shown)
VH: EVQLVESGGGLVKPGGSLRLSCAASGFTFSNAWMNWVRQAPGKGLEWVGRIKSKTDGGAADYAAPVKGRFTISRDDSKNTLYLQMNSLKTEDTAVYYCTTDQLGYDFWSGYYTDTLYYYFGMDVWGPGTTVTVSS
VL: DIVMTQSPLSLPVTPGEPASISCRSSQPLLAMDGHNYLDWYLQKPGQSPQVLIYQSKWRASGVPDRFSGSGSGTDFTLKISRVEAEDVGVYYCMQALQTPLTFGGGTKVEIK
In turn, B2 returned an IC50 in assay [1] of 13 nM.

B3: Fpro0025 IgG (antibody, V domains shown)
VH: EVQLVESGGGLVKPGGSLRLSCAASGFTFSNAWMNWVRQAPGKGLEWVGRIKSKTDGGAADYAAPVKGRFTISRDDSKNTLYLQMNSLKTEDTAVYYCTTDQLGYDFWSGYYTDTLYYYFGMDVWGPGTTVTVSS
VL: DIVMTQSPLSLPVTPGEPASISCRSSQPLLAMDGHNYLDWYLQKPGQSPQVLIYLGSNRASGVPDRFSGSGSGTDFTLKISRVEAEDVGVYYCMQALQTPLTFGGGTKVEIK
In assay [1], B3 showed an IC50 of 33 nM.

B4: Fpro0084 IgG (antibody, V domains shown)
VH: EVQLVESGGGLVKPGGSLRLSCAASGFTFSNAWMNWVRQAPGKGLEWVGRIKSKTDGGAADYAAPVKGRFTISRDDSKNTLYLQMNSLKTEDTAVYYCTTDQLGYDFWSGYYTDTLYYYFGMDVWGPGTTVTVSS
VL: DIVMTQSPLSLPVTPGEPASISCRSSQQLQAYDGHNYLDWYLQKPGQSPQVLIYLGSNRASGVPDRFSGSGSGTDFTLKISRVEAEDVGVYYCMQALQTPLTFGGGTKVEIK
In assay [1], B4 showed an IC50 of 13 nM.
